Measured values from patent US20160200789A1, “IL4 CONJUGATED TO ANTIBODIES AGAINST EXTRACELLULAR MATRIX COMPONENTS” (PHILOGEN S.P.A., priority 2013, published 2016).

Tests used:
[1] = test system: collagen induced arthritis in DBA/1J mice; test: Aggressive collagen induced arthritis model, F8-IL4 dose comparison (Example 3); type: in vivo
Procedure: Animals showing signs of joint inflammation with a total score of 1 to 3 were included in the therapy experiments. When the joint inflammation was too high at day one (more than one paw, score>3) mice were not included in the therapy experiments. Experiments were performed under a project license granted by the Veterinaeramt des Kantons Zuerich, Switzerland (208/2010).
The dose for TNFR-Fc was determined by calculations from the human ENBREL dose and the approximate local TNF concentration compared with the bioactivity of the fusion protein.

CTLL2 cells = test: CTLL2 cell proliferation bioactivity assay; type: cell-based; conditions: 24 h
Procedure: The biological activity of murine IL4 was determined by its ability to stimulate the proliferation of CTLL2 cells. […] After incubation at 37° C. for 24 h, cell proliferation was determined with Cell Titer Aqueous One Solution (Promega).

[2] = biological target: T1, EDA domain of fibronectin (Homo sapiens, UniProt P02751); test: Surface plasmon analysis (BIAcore) on EDA antigen-coated sensor chip; type: binding
T1 construct: surface plasmon analysis (BIAcore) on an EDA antigen-coated sensor chip
From the text: The fusion protein was expressed and purified to homogeneity as described for F8-IL4 above.

[3] = test system: endometriotic lesions in Balb/c mice; test: Endometriosis model in Balb/c mice; type: in vivo, mouse
Procedure: Endometriosis was induced in sixty eight-week old female Balb/c mice according to the protocol described by Somigliana et al. (1999).
One day after the implantation of endometrial tissue, pairs of mice (who received tissue from the same donor) were treated either with intravenous (i.v.) injections of F8-murine IL4 (200 μg/mouse; SEQ ID NO: 21) or PBS (group 1); or with i.v. injections of KSF-murine IL4 (200 μg/mouse; SEQ ID NO: 44) or PBS (group 2). The same treatment was repeated at days 4 and 7. Mice were sacrificed at day 15.

[4] = test system: cytokine levels in ear tissue; test: Cytokine levels in ear tissue extracts of psoriasis models (multiplex bead flow cytometry); type: in vivo, mouse
Procedure: Ear tissue was obtained at the end of therapy from each mouse and processed to a tissue extract as previously described (Schwager et al., 2013). The end of therapy was day 13 for the IMQ model described in Example 14 and day 15 for the CHS model described in Example 15. Briefly, ears were cut into small pieces and suspended in a 50 mM Tris, 150 mM NaCl buffer containing complete protease inhibitor cocktail (Roche Diagnostics, Rotkreuz, Switzerland). For homogenization, a 5 mm stainless steel bead (Qiagen, Hombrechtikon, Switzerland) was added, and the tissue was homogenized in a QIAGEN Tissue Lyzer (4× 1 minute, 4° C., 30 Hz). After centrifugation (5 min, 4° C., 16,000 g), supernatant was harvested […]. Protein concentrations were determined by BCA assay (Thermo Fisher Scientific, IL) and total protein concentration of all samples was normalized. To quantify cytokine levels of treated and control mice, a multiplex bead-based flow cytometry analysis was performed using the mouse Th1/Th2/Th17/Th22 13plex FlowCytomix Multiplex kit (eBioscience). FACS analysis was performed on a BD FACS Canto (BD Bioscience, Allschwil, Switzerland) and data evaluated with FlowCytomix Pro 3.0 software (eBioscience). Using standard curves generated by the FlowCytomix Pro 3.0 software with control samples, a level of quantification was assigned for each cytokine.

A20 lymphoma = test: Biodistribution and ex vivo immunofluorescence in A20 tumour-bearing mice; conditions: after i.v. administration
[5] = test system: experimental autoimmune encephalomyelitis (EAE) in C57/BL6 mice; test: Experimental autoimmune encephalomyelitis (EAE) model of multiple sclerosis; type: in vivo, mouse
From the text: 36 C57/BL6 mice were immunized with MOG35-55/CFA and pertussis toxin by injection as reported in McCarthy et al. (2012) to induce experimental autoimmune encephalomyelitis (EAE), a model for multiple sclerosis (MS). Mice were scored daily and using a grading system from 0 to 5 reflecting progressive paralysis (McCarthy et al., 2012). Any mouse with newly developed clinical signs of EAE was assigned to one of three groups in a balanced manner. Treatment started on the day of assignment to a group (first day after EAE onset). Mice in the F8-murine IL4 treatment group (SEQ ID NO: 21) (indicated by circles in FIG. 18) received a total of three i.v. injection of 200 μg each (200 μl of a 1 mg/ml solution), every third day (see black arrows in FIG. 18). Mice in the Fingolimod (FTY720) treatment group (indicated by squares in FIG. 18) received daily oral gavage at a dose of 1 mg/kg (see open arrows in FIG. 18).

CT26 colon carcinoma = test: Ex vivo immunofluorescence of CT26 tumours; type: in vivo, mouse
From the text: In order to study a second immunocompetent mouse model of cancer, the inventors focused on Balb/c mice (obtained from Elevage Janvier [France]) bearing subcutaneous CT26 tumours of colorectal origin.

[6] = 200 μg/mouse i.v. days 1, 4, 7, day 15, vs PBS
[7] = IMQ and CHS models, end of therapy

T1 sequence (P02751 1727-1814 limits assumed): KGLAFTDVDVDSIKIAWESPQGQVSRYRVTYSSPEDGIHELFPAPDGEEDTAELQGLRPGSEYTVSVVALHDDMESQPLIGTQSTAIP

B1: F8-IL4: antibody F8 (anti-EDA of fibronectin) in diabody format fused at the C-terminus to murine interleukin 4 via 15 amino acid linker (protein)
chain: EVQLLESGGGLVQPGGSLRLSCAASGFTFSLFTMSWVRQAPGKGLEWVSAISGSGGSTYYADSVKGRFTISRDNSKNTLYLQMNSLRAEDTAVYYCAKSTHLYLFDYWGQGTLVTVSSGGSGGEIVLTQSPGTLSLSPGERATLSCRASQSVSMPFLAWYQQKPGQAPRLLIYGASSRATGIPDRFSGSGSGTDFTLTISRLEPEDFAVYYCQQMRGRPPTFGQGTKVEIKSSSSGSSSSGSSSSGHIHGCDKNHLREIIGILNEVTGEGTPCTEMDVPNVLTATKNTTESELVCRASKVLRIFYLKHGKTPCLKKNSSVLMELQRLFRAFRCLDSSISCTMNESKSTSLKDFLESLKSIMQMDYS
modifications: Synthetic sequence Amino acid sequence of F8 -(murine) IL4 of PCT/EP2014/053998
notes: antibody F8 (anti-EDA of fibronectin) in diabody format fused at the C-terminus to murine interleukin 4 via 15 amino acid linker
B1 was tested, and the “reduction in paw swelling compared with murine version of ENBREL” value ([1]; 100 μg vs TNFR-Fc 30 μg) was “at least equivalent”, the tolerability ([1]; 100 μg/injection) was “well tolerated” and the weight change ([1]; 100 μg/injection) was “lost less weight than mice receiving only the buffer vehicle (PBS)”. The “disease-modulating effect (arthritic score)” value ([1]; 100 μg/injection i.v., days 1, 4 and 7) was “at least as potent as the murine version of Enbrel (TNFR-Fc)”, the paw swelling ([1]; 100 μg, vs buffer vehicle or low dose) was “less severe paw swelling than mice receiving only the buffer vehicle or low amounts of F8-IL4” and the EC50 (CTLL2 cells; CTLL2 cells, 20000 cells/well) was 0.023 nM. The biological cytokine activity (CTLL2 cells; CTLL2 proliferation) was “comparable to that of recombinant murine IL4”, the “affinity for the cognate antigen” value [2] was “retained a high-affinity for the cognate antigen” and the “mice completely cured of the disease” value ([3]; 200 μg/mouse i.v.) was “three mice out of ten”. The “number of the endometriotic lesions” value [3, 6] was “statistically significant reduction”, the “volume of the endometriotic lesions” value [3, 6] was “statistically significant reduction” and the “IL2 level in ear tissue” value [4, 7] was “do not appear to show a change in concentration”. For the same molecule, the “IL10 level in ear tissue” value [4, 7] was “up-regulated”, the “IL13 level in ear tissue” value [4, 7] was “up-regulated” and the “IL27 level in ear tissue” value [4, 7] was “up-regulated”. The “IL-1 alpha level in ear tissue” value ([4]; IMQ-induced psoriasis model) was “may be down-regulated”, the “accumulation around tumour neo-vascular structures” value (A20 lymphoma) was “preferential accumulation” and the “EAE severity compared with fingolimod” value ([5]; fingolimod 1 mg/kg daily oral gavage) was “not significantly different”. The “EAE severity compared with PBS” value ([5]; three i.v. injections of 200 μg, every third day) was “significantly reduced EAE severity” and the “accumulation at the tumour site” value (CT26 colon carcinoma) was “preferentially accumulated at the tumour site”.
